{
  "source": "patent US20180346526",
  "proteins": {"B1": {"name": "YydG C223A mutant (protein)", "chain": "MYNKTVSINLDSRCNASCDHCCFSSSPTSTTRMEKEYIRELVTEFAKNKTIQVISFTGGEVFLDYKFLKELMEIIKPYEKQITLISNGFWGLSKKKVQEYFHDMNSLNVIALTISYDEYHAPFVKSSSIKNILEHSRKYPDIDISLNMAVTKDKMSNHILEELGDSILGVKITKFPMISVGAAKTRIKQENIHKFYSLEDEDSLHCPGYDIVYHHDGEIYPCASPAIFETKITLREEYNQSFERTVEKLNSNLLLFILRKEGFKWFLNILKENNKIEEFDIPYEFSSICGVCGSLFNSAEKINYFYPYMEKYYNENFKV"}, "B2": {"name": "YydG A3 mutant (AxxxAxxA) (protein)", "chain": "B1 chain with C14A, C18A, C21A, A223C"}, "B3": {"name": "YydG C22A mutant (protein)", "chain": "B1 chain with C22A, A223C"}, "B4": {"name": "YydG C222A mutant (protein)", "chain": "B1 chain with C222A, A223C"}, "B5": {"name": "YydG, radical SAM epimerase of Bacillus subtilis (wild type) (protein)", "chain": "B1 chain with A223C"}},
  "target": "T1, YydF18-49, truncated form of YydF with residues 18 to 49",
  "T1 chain": "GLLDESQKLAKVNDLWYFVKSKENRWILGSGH",
  "note": "Changes are numbered by the printed parent chain. In names and notes the source's numbering stands.",
  "data": [
    {"protein": "B1", "values": [
      {"measurement": "epimerization activity on the peptide substrate (HPLC, LC-MS)", "value": "The C223A mutation did not either prevent the epimerization activity"}
    ]},
    {"protein": "B2", "values": [
      {"measurement": "conversion of the peptide substrate and SAM cleavage (HPLC)", "value": "the A3 mutant was unable to convert the peptide substrate and to cleave SAM"}
    ]},
    {"protein": "B3", "values": [
      {"measurement": "enzyme activity on the peptide substrate (HPLC)", "value": "the C22A mutation did not affect the activity of the enzyme and the three epimerized peptides were produced"}
    ]},
    {"protein": "B4", "values": [
      {"measurement": "enzyme activity on the peptide substrate (HPLC)", "value": "The C222A mutant was also totally impaired for enzyme activity"}
    ]},
    {"protein": "B5", "values": [
      {"measurement": "Peptide 3*/Peptide 3 ratio relative to Peptide 2*/Peptide 2 ratio (tryptic peptide mapping)", "value": "the Peptide 3*/Peptide 3 ratio was 5 times larger than the Peptide 2*/Peptide 2 ratio"},
      {"measurement": "epimerization of Ile residues", "value": "up to ˜35% of the Ile"},
      {"measurement": "epimerization of Val residues", "value": "˜10% of Val residues"},
      {"measurement": "formation of epimerized peptide derivatives (HPLC)", "value": "YydF18-49 proved to be a better substrate"},
      {"measurement": "moles of 5'-dA produced per mole of modified product", "value": "YydG produced one mole of 5′-dA per mole of modified product"}
    ]}
  ]
}
